# Patent US8043804B2, “DBC1, a novel native inhibitor of anti-aging protein SIRT1” (The Trustees of Columbia University in the City of New York, priority 2007, dated 2011)
# Assays:
# Type in all cases: biochemical
# SIRT2 = biological target: T1, SIRT2 (Homo sapiens, UniProt Q8IXJ6); assay: In vitro deacetylation assay, acetylated tubulin as substrate of purified SIRT2; conditions: nicotinamide 5 mM, increasing amounts of DBC1 (FIG. 3d)
# T1 construct: made in house; host or cells: transfected mammalian cells (293 cells are named for the Flag-SIRT constructs)
# T1 sequence (Q8IXJ6 1-389): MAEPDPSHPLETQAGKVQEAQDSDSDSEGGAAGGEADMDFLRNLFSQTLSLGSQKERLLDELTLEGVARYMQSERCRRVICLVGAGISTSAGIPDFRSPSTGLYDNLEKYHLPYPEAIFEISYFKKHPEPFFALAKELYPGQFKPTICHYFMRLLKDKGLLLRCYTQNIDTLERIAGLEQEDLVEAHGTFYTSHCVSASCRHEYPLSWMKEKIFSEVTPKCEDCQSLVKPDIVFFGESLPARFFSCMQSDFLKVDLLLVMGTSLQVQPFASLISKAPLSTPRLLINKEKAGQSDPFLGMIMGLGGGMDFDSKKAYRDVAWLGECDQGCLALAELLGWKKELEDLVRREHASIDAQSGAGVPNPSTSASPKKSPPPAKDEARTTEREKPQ
# SIRT1 = biological target: T2, SIRT1 (Homo sapiens, UniProt Q96EB6); assay: In vitro deacetylation assay, acetylated p53 as substrate of purified Flag-SIRT1; conditions: purified system, 50 μM NAD, dose dependent, Western blot (FIG. 3c)
# T2 construct: made in house
# T2 sequence (Q96EB6 1-747): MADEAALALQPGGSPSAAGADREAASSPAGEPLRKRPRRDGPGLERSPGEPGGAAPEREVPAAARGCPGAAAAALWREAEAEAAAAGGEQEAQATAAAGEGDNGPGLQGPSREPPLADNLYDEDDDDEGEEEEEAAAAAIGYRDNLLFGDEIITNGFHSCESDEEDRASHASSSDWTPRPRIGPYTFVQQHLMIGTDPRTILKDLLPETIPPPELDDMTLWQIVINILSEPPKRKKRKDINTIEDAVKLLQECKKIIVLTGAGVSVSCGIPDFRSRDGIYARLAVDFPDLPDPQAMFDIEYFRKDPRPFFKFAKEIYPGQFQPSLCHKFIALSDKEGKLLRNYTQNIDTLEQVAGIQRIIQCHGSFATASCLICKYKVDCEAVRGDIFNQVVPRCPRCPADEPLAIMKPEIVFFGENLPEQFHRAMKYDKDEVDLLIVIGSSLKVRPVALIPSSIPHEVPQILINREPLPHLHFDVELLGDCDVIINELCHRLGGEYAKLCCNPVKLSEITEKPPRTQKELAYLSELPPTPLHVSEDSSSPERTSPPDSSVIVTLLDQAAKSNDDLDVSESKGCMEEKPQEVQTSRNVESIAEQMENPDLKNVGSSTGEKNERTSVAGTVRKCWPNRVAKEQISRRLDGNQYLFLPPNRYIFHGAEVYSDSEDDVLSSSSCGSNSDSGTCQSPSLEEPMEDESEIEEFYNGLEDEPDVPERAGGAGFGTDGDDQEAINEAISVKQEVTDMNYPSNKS
# Description: FIG. 3. DBC1 inhibits SIRT1 mediated deacetylation of p53 (a) Fractionation of immunoprecipitated F-SIRT1 complex. 293 cells were transfected with Flag-tagged SIRT1 and Flag-SIRT1 complexes were subsequently purified by M2-immunoprecipitation in FLAG-lysis buffer. Flag-SIRT1 complex was eluted in 100 ul of elution buffer and half of the elution was fractioned by size-exclusion chromatography on a Sepherose12 Column on the SMART system. 10% of each fraction was analyzed by Western Blot for DBC1 (upper panel) and SIRT1 (lower panel). (b) DBC1 inhibits SIRT1 mediated deacetylation of p53 in vitro. […] The reactions were resolved on SDS-PAGE and analyzed by Western Blot using antibodies specific for acetylated p53, total p53 (DO-1), SIRT1 and DBC1. […] The reactions were resolved on SDS-Page and analyzed by Western Blot using antibodies specific for acetylated p53, total p53, SIRT1 and DBC1. […]
# Although the deacetylase activity of SIRT1 is essential for its function, it is unknown how this activity is regulated. When purified Flag-SIRT1 complexes from human cells were analyzed by gel-filtration chromatography on a Superose 12 column (SMART system), SIRT1 and DBC1 polypeptides co-eluted in fraction 15 with an apparent molecular weight of 440 KDa (lane 4, FIG. 3a). […]
# HDAC1 = HDAC1 (Homo sapiens, UniProt Q13547); assay: In vitro deacetylation of p53 by purified HDAC1 complex; conditions: purified HDAC1 complexes, increasing amounts of DBC1 (FIG. 9)
# Description: FIG. 9. Effect of DBC1 on HDAC1 mediated p53 deacetylation in vitro. Purified HDAC1 complex was used to deacetylate p53 in vitro (lane 2). Increasing amounts of DBC1 were added in addition to HADC1 (lanes 3-4) to investigate whether DBC1 can inhibit p53 deacetylation by HDAC1. […] The samples were resolved by SDS-PAGE and analyzed by Western Blot using antibodies for acetylated p53, total p53 (DO-1), HDAC1 and DBC1.
# Finally, p53 could also be deacetylated by purified HDAC1 complexes as previously shown (Luo, 2000) (lane 2, FIG. 9); this deacetylase activity was not repressed by DBC1 (lanes 3-4).
# HDAC1, sequence (Q13547 whole entry, species assumed): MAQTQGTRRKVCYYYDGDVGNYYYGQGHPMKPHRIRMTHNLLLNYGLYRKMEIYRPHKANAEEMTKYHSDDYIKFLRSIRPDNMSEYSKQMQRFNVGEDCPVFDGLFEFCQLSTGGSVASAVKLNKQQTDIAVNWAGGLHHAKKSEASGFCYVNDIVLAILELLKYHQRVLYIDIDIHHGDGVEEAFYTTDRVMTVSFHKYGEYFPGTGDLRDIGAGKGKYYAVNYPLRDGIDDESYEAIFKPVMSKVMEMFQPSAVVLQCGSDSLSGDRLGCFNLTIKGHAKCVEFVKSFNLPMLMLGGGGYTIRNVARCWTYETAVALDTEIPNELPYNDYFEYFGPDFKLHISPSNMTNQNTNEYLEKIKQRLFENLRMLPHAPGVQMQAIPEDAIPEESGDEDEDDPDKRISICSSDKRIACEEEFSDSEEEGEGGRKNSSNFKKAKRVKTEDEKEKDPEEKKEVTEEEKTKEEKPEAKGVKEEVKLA
SIRT2-mediated deacetylation of acetylated tubulin (SIRT2),SIRT1-mediated deacetylation of acetylated p53 (SIRT1),HDAC1-mediated deacetylation of p53 (HDAC1),Compound
inhibited,,,"NC(=O)c1cccnc1 [nicotinamide, reference compound]"
not affected,strongly repressed,not repressed,Flag-DBC1: Flag-tagged Deleted in Breast Cancer 1 protein purified by M2 immunoprecipitation under high stringency
